{"source": "patent US5523209", "key": {"[1]": {"biological_target": "integrin α5 β1 on CHO cells (hamster)", "experiment": "binding of soluble 125I-Fn to CHO cells"}, "[2]": {"biological_target": "integrin α5 β1 on CHO cells (hamster)", "experiment": "125I-Fn binding to CHO cells washed free of NaN3 and 2-deoxyglucose"}}, "data": [{"substance": "fibronectin (from UniProt P02751) (ligand)", "values": [{"measurement": "Kd", "setting": "[1]", "value": 100, "unit": "nM"}, {"measurement": "percent of the high affinity binding restored after washout of the metabolic inhibitors", "setting": "[2]", "value": 75, "unit": "%"}]}]}
